What was measured:
human hemoglobin (human) = human hemoglobin (human) (UniProt P69905); assay: SEC; tetramer to dimers; SEC-HPLC of samples at 1.25, 2.5, 5, 10 and 20 μM (heme basis) after incubation in 0.1 M PBS pH 7.4 at 4°C for one week; fraction of tetramers by deconvolution, Kd from the intercept of the linearised plot (Eq 3)
[1] = biological target: human haptoglobin, mixture of phenotypes Hp2-1 and Hp2-2 (human) (UniProt P00738); assay: stopped-flow fluorescence spectrometry; Hp (0.25 μM, Hb tetramer binding basis) rapidly mixed with excess Hb/metHb at various concentrations; excitation 285 nm, emission 310 nm; monoexponential fit gives pseudo first order constants, linear regression against Hb/metHb concentration gives the bimolecular rate constant
[2] = biological target: human methemoglobin (human) (UniProt P69905); assay: SEC; tetramer to dimers; SEC-HPLC of samples at 1.25, 2.5, 5, 10 and 20 μM (heme basis) after incubation in 0.1 M PBS pH 7.4 at 4°C for one week; fraction of tetramers by deconvolution, Kd from the intercept of the linearised plot (Eq 3)

bovine hemoglobin, sequence (P01966 whole entry): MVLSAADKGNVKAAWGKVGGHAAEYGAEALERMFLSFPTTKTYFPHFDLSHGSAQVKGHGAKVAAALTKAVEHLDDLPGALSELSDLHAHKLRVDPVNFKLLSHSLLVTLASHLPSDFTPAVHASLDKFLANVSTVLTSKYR
bovine hemoglobin, sequence (P02070 whole entry): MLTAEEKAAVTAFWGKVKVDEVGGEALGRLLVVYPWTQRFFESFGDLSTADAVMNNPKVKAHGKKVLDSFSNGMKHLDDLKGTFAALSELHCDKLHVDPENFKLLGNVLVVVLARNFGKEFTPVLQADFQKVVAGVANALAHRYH
bovine methemoglobin, sequence (P01966 whole entry): as the sequence (P01966 whole entry) above
bovine methemoglobin, sequence (P02070 whole entry): as the sequence (P02070 whole entry) above
human hemoglobin, P69905 1-142; P68871 1-147 (complex; other documents disagree on this pair), sequence (P69905 whole entry): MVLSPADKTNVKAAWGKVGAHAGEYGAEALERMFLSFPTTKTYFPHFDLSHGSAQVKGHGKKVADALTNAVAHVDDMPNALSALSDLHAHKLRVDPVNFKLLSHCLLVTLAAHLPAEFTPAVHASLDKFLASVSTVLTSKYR
human hemoglobin, P69905 1-142; P68871 1-147 (complex; other documents disagree on this pair), sequence (P68871 whole entry): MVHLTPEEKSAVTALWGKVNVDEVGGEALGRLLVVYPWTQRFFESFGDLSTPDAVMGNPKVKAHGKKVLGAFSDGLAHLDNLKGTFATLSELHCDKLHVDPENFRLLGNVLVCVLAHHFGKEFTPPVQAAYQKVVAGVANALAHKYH
human methemoglobin, P69905 1-142; P68871 1-147 (complex; other documents disagree on this pair), sequence (P69905 whole entry): as the sequence (P69905 whole entry) above
human methemoglobin, P69905 1-142; P68871 1-147 (complex; other documents disagree on this pair), sequence (P68871 whole entry): as the sequence (P68871 whole entry) above

kon [1] | Substance | further results
– | human hemoglobin, P69905 1-142; P68871 1-147 (complex; other documents disagree on this pair) | Kd (human hemoglobin (human)): 230 nM
147000 M⁻¹ s⁻¹ | bovine hemoglobin (from UniProt P01966 1-142; P02070 1-145) (complex) | –
140000 M⁻¹ s⁻¹ | bovine methemoglobin (from UniProt P01966 1-142; P02070 1-145) (complex) | –
– | human methemoglobin, P69905 1-142; P68871 1-147 (complex; other documents disagree on this pair) | Kd [2]: 450 nM

Reference: PMC8849478
